Results as given in patent US20210338656A1, “IMMUNOSTIMULATORY AGENTS IN COMBINATION WITH ANGIOGENESIS INHIBITORS” (Alkermes Pharma Ireland Limited, priority 2020, published 2021).

Experiments:
[1] = system: MC38 murine colon carcinoma cells; experiment: Anti-tumor efficacy in subcutaneous MC38 syngeneic tumor model (tumor growth, survival); format: in vivo, mouse; details: for tumor growth inhibition (TGI): Day 11
Procedure: The characteristics of each animal study group, the administration of the test articles and timing, the collection of samples and the overall study design are as shown in Tables 1 and 2:
(68-72° F.) and 40-60% humidity.
Additional aliquots were stored at 4° C. for use within 72 hours of formulation. Just prior to administration, dosing solutions were remixed with gentle inversion.
Group mean tumor volumes were plotted versus time. When an animal exited the study because of tumor size or TR death, its final recorded tumor volume was included with the data used to calculate the mean volume. Mean tumor volumes were calculated for a group until 50% of the animals had exited the study. Kaplan-Meier plots show the percentage of animals in each group remaining in the study versus time.

[2] = system: gene expression in MC38 tumors; experiment: RNA-Seq gene expression in MC38 tumors, Day 10; format: in vivo, mouse
Procedure: On Day 10 spleens and tumors were collected and weighed from all animals in Groups 7 through 12 and weighed prior to processing. Tissues from four animals in each group were processed to single cell suspensions for flow cytometry analysis at CRL-NC (described below). Tissues from the remaining six animals in each group were preserved in RNAlater, stored at −80° C.
Tumors and spleens were dissected on the appropriate day of the study and were weighed and immediately placed in RNAlater Stabilizing Reagent to preserve the tissue and stored overnight at 4 deg C. The following day, the samples were removed from RNA later and snap frozen and placed at −80 deg C.
Unless otherwise indicated, everything was done on ice and the materials were prechilled on ice. The tissues were homogenized in TRIzol in Precellys tissue grinding tubes. After homogenization, the TRIzol solutions were transferred to 1.5 ml tubes and spun for 5 min at 12,000×g to eliminate the insoluble material. The TRIzol solutions were then transferred to Phasemaker tubes. Chloroform was added, the tubes were capped, and shaken vigorously for 15 seconds. The samples were then incubated at room temperature for 2-15 minutes and centrifuged at 12,000×g for 5 minutes. The upper, aqueous phase was then transferred to a new tube and an equal volume of 70% ethanol was added and it was vortexed. The liquid was then transferred to Qiagen RNeasy columns and centrifuged at 8000×g. DNAse was added to each tube to eliminate any residual DNA. The columns were then washed and eluted as directed by the kit. The RNA concentrations were determined using a Qubit.
Libraries were prepared for sequencing by using the Mouse Transcriptome Ion AmpliSeq Library Preparation on the Ion Chef System as directed by the manufacturer. Eight samples of purified RNA and 8 unique IonCode molecular barcodes were added to a 96 well plate and were prepared at a time. After the libraries were prepared, they were templated and loaded onto an Ion Torrent 540 chip using the Ion 540 Chef Kit from ThermoFisher. The 540 chips were then loaded into a Gene Studio S5 sequencer and sequenced.
Raw sequencing data was processed by Torrent Suite (v5.8.0) software that came with the Gene Studio sequencer (ThermoFisher). For each sample, this program summarized gene expression in a CHP file. The CHP files were then loaded into the Transcriptome Analysis Console (TAC) program (ThermoFisher).

[3] = T cell signaling gene, MC38 tumors Day 10 RNA-Seq, lucitanib 10 mg/kg po, SEQ ID NO. 2 3 mg/kg sc
[4] = Type I/II interferon pathway gene, MC38 tumors Day 10 RNA-Seq, lucitanib 10 mg/kg po, SEQ ID NO. 2 3 mg/kg sc
[5] = antigen presentation gene, MC38 tumors Day 10 RNA-Seq, lucitanib 10 mg/kg po, SEQ ID NO. 2 3 mg/kg sc

B1: SEQ ID NO: 2: mouse ortholog construct (murine surrogate) of the circularly permuted IL-2/IL-2Rα fusion protein of SEQ ID NO: 1 (protein)
chain: SKSFQLEDAENFISNIRVTVVKLKGSDNTFECQFDDESATVVDFLRRWIAFCQSIISTSPQGGSSSTQQQQQHLEQLLMDLQELLSRMENYRNLKLPRMLTFKFYLPKQATELKDLQCLEDELGPLRHVLDLTQGSGGGSELCLYDPPEVPNATFKALSYKNGTILNCECKRGFRRLKELVYMRCLGNSWSSNCQCTSNSHDKSRKQVTAQLEHQKEQQTTTDMQKPTQSMHQENLTGHCREPPPWKHEDSKRIYHFVEGQSVHYECIPGYKALQRGPAISICKMKCGKTGWTQPQLTCVDGSHHHHHH
modifications: Mouse cpIL-2IL-2R-alpha
tumor growth inhibition (TGI) ([1]; SEQ ID NO: 2 monotherapy 1.5 mg/kg s.c. once every 3 days): 25%
tumor growth inhibition (TGI) ([1]; SEQ ID NO: 2 monotherapy 3 mg/kg s.c. once every 3 days): 51%
median survival time ([1]; SEQ ID NO: 2 monotherapy 1.5 mg/kg s.c.): 18 days
median survival time ([1]; SEQ ID NO: 2 monotherapy 3 mg/kg s.c.): 22 days
complete response (number) ([1]; SEQ ID NO: 2 monotherapy arms): 1
durable complete tumor regressions ([1]; either dose (1.5 or 3 mg/kg) of SEQ ID NO: 2 monotherapy, groups pooled): 1/20
tumor growth outcome (summary in words) ([1]; treatment arm summaries): modest tumor growth inhibition
Cd3e mean expression value relative to vehicle group [2, 3]: 3.81
Cd4 mean expression value relative to vehicle group [2, 3]: 1.46
Cd8a mean expression value relative to vehicle group [2, 3]: 4.64
Cd8b1 mean expression value relative to vehicle group [2, 3]: 8.03
Cd28 mean expression value relative to vehicle group [2, 3]: 2.86
Cd247 mean expression value relative to vehicle group [2, 3]: 3.95
Cd3d mean expression value relative to vehicle group [2, 3]: 5.96
Ctla4 mean expression value relative to vehicle group [2, 3]: 0.60
H2-Aa mean expression value relative to vehicle group [2, 3]: 1.27
H2-Ab1 mean expression value relative to vehicle group [2, 3]: 2.25
H2-Eb1 mean expression value relative to vehicle group [2, 3]: 1.29
Icos mean expression value relative to vehicle group [2, 3]: 1.69
Ifng mean expression value relative to vehicle group [2, 3]: 2.06
Il2 mean expression value relative to vehicle group [2, 3]: 0.31
Lck mean expression value relative to vehicle group [2, 3]: 4.42
Lcp2 mean expression value relative to vehicle group [2, 3]: 0.23
Nfatc2 mean expression value relative to vehicle group [2, 3]: 0.67
Pdcd1 mean expression value relative to vehicle group [2, 3]: 2.42
Ptpn22 mean expression value relative to vehicle group [2, 3]: 2.19
Ptprc mean expression value relative to vehicle group [2, 3]: 2.32
Zap70 mean expression value relative to vehicle group [2, 3]: 2.63
B2m mean expression value relative to vehicle group [2, 4]: 0.03
Bst2 mean expression value relative to vehicle group [2, 4]: 0.08
Cd44 mean expression value relative to vehicle group [2, 4]: −0.19
Ciita mean expression value relative to vehicle group [2, 4]: 1.36
Fcgr1 mean expression value relative to vehicle group [2, 4]: 1.12
Gm10499 mean expression value relative to vehicle group [2, 4]: −0.02
H2-Aa mean expression value relative to vehicle group [2, 4]: 1.27
H2-Ab1 mean expression value relative to vehicle group [2, 4]: 2.25
H2-Eb1 mean expression value relative to vehicle group [2, 4]: 1.29
H2-K1 mean expression value relative to vehicle group [2, 4]: 0.04
H2-Q10 mean expression value relative to vehicle group [2, 4]: −0.28
Icam1 mean expression value relative to vehicle group [2, 4]: 0.88
Ifi35 mean expression value relative to vehicle group [2, 4]: 0.38
Ifit2 mean expression value relative to vehicle group [2, 4]: 0.54
Ifitm1 mean expression value relative to vehicle group [2, 4]: −0.13
Ifna2 mean expression value relative to vehicle group [2, 4]: 0
Ifnar1 mean expression value relative to vehicle group [2, 4]: 0.35
Ifnar2 mean expression value relative to vehicle group [2, 4]: 0.2
Ifnb1 mean expression value relative to vehicle group [2, 4]: −0.16
Ifng mean expression value relative to vehicle group [2, 4]: 2.06
Ifngr1 mean expression value relative to vehicle group [2, 4]: 0.23
Irf1 mean expression value relative to vehicle group [2, 4]: −0.01
Irf4 mean expression value relative to vehicle group [2, 4]: 0.92
Irf5 mean expression value relative to vehicle group [2, 4]: 0.43
Irf8 mean expression value relative to vehicle group [2, 4]: 1.46
Mx1 mean expression value relative to vehicle group [2, 4]: 0.6
Ncam1 mean expression value relative to vehicle group [2, 4]: −0.2
Pml mean expression value relative to vehicle group [2, 4]: 0.62
Ptpn6 mean expression value relative to vehicle group [2, 4]: 0.36
Socs3 mean expression value relative to vehicle group [2, 4]: 0.09
Tyk2 mean expression value relative to vehicle group [2, 4]: 0.36
Vcam1 mean expression value relative to vehicle group [2, 4]: 0.13
B2m mean expression value relative to vehicle group [2, 5]: 0.03
Btk mean expression value relative to vehicle group [2, 5]: 0.06
Cd14 mean expression value relative to vehicle group [2, 5]: 0.51
Cd36 mean expression value relative to vehicle group [2, 5]: −0.08
Cd74 mean expression value relative to vehicle group [2, 5]: 1.14
Ctsc mean expression value relative to vehicle group [2, 5]: 0.82
Ctss mean expression value relative to vehicle group [2, 5]: 1.2
Cybb mean expression value relative to vehicle group [2, 5]: 0.8
Fcgr1 mean expression value relative to vehicle group [2, 5]: 1.12
H2-Aa mean expression value relative to vehicle group [2, 5]: 1.27
H2-Ab1 mean expression value relative to vehicle group [2, 5]: 2.25
H2-DMa mean expression value relative to vehicle group [2, 5]: 1.16
H2-DMb2 mean expression value relative to vehicle group [2, 5]: 0.65
H2-Ea-ps mean expression value relative to vehicle group [2, 5]: 0
H2-Eb1 mean expression value relative to vehicle group [2, 5]: 1.29
H2-K1 mean expression value relative to vehicle group [2, 5]: 0.04
H2-Ob mean expression value relative to vehicle group [2, 5]: 1.61
H2-Q10 mean expression value relative to vehicle group [2, 5]: −0.28
Ly96 mean expression value relative to vehicle group [2, 5]: 0.27
Ncf4 mean expression value relative to vehicle group [2, 5]: 0.86
Psmb9 mean expression value relative to vehicle group [2, 5]: 0.03
Tap1 mean expression value relative to vehicle group [2, 5]: 0.12
Tlr1 mean expression value relative to vehicle group [2, 5]: 0.62
Tlr2 mean expression value relative to vehicle group [2, 5]: 0.36
Tlr4 mean expression value relative to vehicle group [2, 5]: 0.21
expression of genes associated with cytotoxic immune cell function and T cell activation ([2]; tumors): Increased expression
